In the nanobody polyreactivity screen of Harvey et al. (2022):

Assay: yeast display, Sf9 membrane polyspecificity reagent, FACS + sequencing; frameworks hold sequencing errors
In short: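 A synthetic nanobody library was expressed on Saccharomyces cerevisiae BJ5465 by galactose induction for 36–48 hours. The library was stained for 1 hour at 4 °C with 10% biotinylated, detergent-solubilized Sf9 membrane reagent and enriched with streptavidin microbeads before FACS. Low and high (top ~1%) gates were set on anti-HA fluorescence for expression and streptavidin fluorescence for reagent binding, and each polyreactivity label reflects the gate of origin.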

| Sequence | polyreactivity (PSR sort gate) |
| --- | --- |
| QVKLVESGGGLVQAGGSLRLSCPASGFIFYDYVMGWYRQAPGKERELVAAISSNGGSTYYADSVKGRFSISRDNAKYTVYLQMNSLKPEDTAVYYCAAEGKSYPWPWYFDYWGQGTQVTVSS | high polyreactivity |
| QVQLVESGGGLVQAGGTLRLSCAASGSTFWRNTMEWYRQAPGKERELVAAITGCGGRTYYADSVKGRFTISRDNAKNTVYLQMNSLKPEDTAVYYCAADGRGVHYDYWGQGSQVTVSS | high polyreactivity |
| QVQLVESGGGLVQAGGSLRLSCAASGSTFDTYAMGWYRQAPGKERELVAAINSGGGTNYADSVKGRFTISRDNAKNTVYLQMNSLKPEDTAVYYCATDSRRDAGGGDFDYWGQGTQVTVSS | low polyreactivity |
| QVQLVESGGGLVQAGGSLRLSCAASGRIFYYYDMGWYRQAPGKERELVATMSGIGGSTYYADSVKGLFTISRDHAKNTVYLQMNSLKPEDTAVYYCNADYPTSYPLFKTGFDYWGQGTQVTVSS | low polyreactivity |
| QVQLVESGGGLVQAGGSLRLSCAASGYILFAYAMGWYRQAPGKERALVATITTSGGITYYADSVKGRFTISRDNAKNTVYLQMNSLKPEDTAVYYCAAAEGGGLVTYDYWGQGTQVTVSS | low polyreactivity |
| QVQLVESGGGLVQAGGSLRLSCAASGFIFVVYAMGWYRQAPGKERELVATISSGGGTYYADSVKGRFTISRDNAKNTVYLQMNSLKPEDTAVYYCAARRRRLYHFGGNNYWGQGTQVTVSS | high polyreactivity |
| QVQLVESGGGLVQAGGSLRLSCAASGFTFGFYAMGWYRQAPGKERELVASITTRGGSTRYADSVKGRFTISRDNAKNTVYLQMNSLKPEDTAVYYCAAQYSYVRYLKRGYGYWGQGTQVTVSS | high polyreactivity |
| QVQLVESGGGLVQAGGSLRLSCAASGLTFGKYAMGWYRQAPGKERELVAAISRRGGSTYYADSVKGRFTISRDNANNTVYLQMNSLKPEDTAVYFCNTDTKHTGLDYWGQGTQVTVSS | high polyreactivity |
| QVQLVESGGGLVQAGGSLRLSCAASGLTFQYNAMGWYRQAPGKERELVAAISWSGGSTYYADSVKGRFTISRDNAKNTVYLQMNSLNPEDTAVYYCAAVYLHKSYARRMDYWGQGTQVTVSS | low polyreactivity |
| QVQLVESGGVLVQAGGSLRLSCAASGLTFQPYVMGWYRHAPGKERELVAAISVRTTRTYYADSVKGRFTISRDNAKNTVYLQMNSLKPEDTAVYYCATRGDYWSPYEDDDYWGQGTQLTVSS | low polyreactivity |
| QVQLVESGGGIVQAGGSLRLSCAASGFIFAGNAMGWSSQAPGKERELVAAITRRGGSTHYADSVKGRFTISRDKAKYTVYLQMNSLKPEDTAVYYCNAAVQPPWSDYWGQGTQVTVSS | low polyreactivity |
| QDQLVESGGGLDHAGGSIRLSCAASGFISKYYAMGWYTQAPGKERELVASISRDGSTSYADTVKGRFTNTRDNAKNPVYLQMNSLKPEDTAVYYCNAGYNWYPLFDYWGQGTQVTVSS | high polyreactivity |
| QVQLVESGGGLVQAGGSLRLSCAASGSTFKWNAMGWYRQAPGKERELVAAISKGSVNTYYADSVKGRFTISRDNAKNTVYLQMNSLKPEDTAVYYCAADRRYPALDYRGQGTQVTVSS | high polyreactivity |
| QDQLVDSGGGLVQAGGSLRLSCAASGRTFGYYAMGWYRQAPGKERELVAAISISTGRTYYADSVKGRFTISRDNAKNTVYLQMNSLKPEDTAVYYCAAYYYGGRYHSEYDYWGQGTQVTVSS | high polyreactivity |
| QVQVVESGGGLVQAGGSLRLSCAASGRIFAKYAMGWYIQAPGKERELVAAIDLSDGSTSYADSVKGRFTISRDNAKNTVYLQMNSLKPEDTAVYYCAKTWANVYAGAHDYWGQGTQVTVSS | low polyreactivity |
| QVQLVESGGGLVQAGGSLRLSCAASGRIFYYYTMGWYRQAPGKERELVAALTRSGSSTYADSVKGRFTISRDNAKNTVYLQMNSLKAEVTAVYYCAADYIRRYDYWGQGTQVTVSS | low polyreactivity |
| QVQLVESGGGLVQAGGSLRLSCAASGSIFAPNAMGWYRQAPGKERELVAAITLSGGSRYYADSVKGRFTISREIAMNNVYLQMNSLKPEDTAVYYCNADLLPADAPLWVTGGDYWGQGTQVTVSS | low polyreactivity |
